The values below come from the supplement of paper PMC10567573.

± gives the standard deviation.

A short description of the data set: protein stability index of a GFP-peptide fusion (GPS, HEK-293T) (PSI 1-6); higher = more stable. The conditions noted are these: c terminus: a fixed tail appended.
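Note: 24-mer peptide tiles fused after GFP, lentivirally expressed, FACS-sorted into six equal bins by GFP/DsRed ratio, decoded by Illumina sequencing, PSI is the read-weighted mean bin number.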

As to FRVTLWVHPFVNYNSSRFGEGVER [MYORG], the protein stability index runs as follows: (treatment: DMSO) 2.77 ± 0.89; (treatment: MLN4924 1 uM, 8 h) 2.62 ± 0.41.
The like results for PESADTGDKSESPDEANVGKHPKD [TOR1AIP2] were, in that order, 5.57 ± 0.14 and 5.601 ± 0.053.
On the same counts, the results for MPYNFCLPSLSCRTSCSSRPCVPP [KRT33B] are 2.34 ± 0.41 and 2.18 ± 0.45.
The like results for YSSEDSTLASVPPAATFGADDLVL [ELF3] were, in that order, 4.5 ± 0.13 and 4.48 ± 0.22.
Turning to TESQLTPCIRNVTSPTRQHHVERE [BTBD10], the protein stability index runs as follows: (treatment: DMSO) 4.99 ± 0.16; (treatment: MLN4924 1 uM, 8 h) 4.95 ± 0.17.
Regarding NRRDVEAWFFSKTEELNKEVASNT [KRT15], the protein stability index is, setting by setting: (treatment: DMSO) 4.05 ± 0.26; (treatment: MLN4924 1 uM, 8 h) 4.12 ± 0.23.
Regarding ASLGEKRDHHSTHYRASEEEPEYG [CHGB], the protein stability index is, setting by setting: (treatment: DMSO) 5.37 ± 0.24; (treatment: MLN4924 1 uM, 8 h) 5.34 ± 0.11.
Take YLTNCEKLSAKSLQTLRSFSHTLV [ZER1]: the protein stability index runs as follows: (treatment: DMSO) 2.3 ± 0.16; (treatment: MLN4924 1 uM, 8 h) 2.24 ± 0.38.
On the same counts, the results for TPKCSSPRGQEGSRQDKPLSPAGS [YJU2B] are 5 ± 0.23 and 5.21 ± 0.23.
The like results for IYLATSSSKFYDLFLMECEESPNG [RHOBTB1] were, in that order, 2.66 ± 1.7 and 2.71 ± 0.98.
As for RRVPPRFSIPPTNHEIMPGGSVNI [PTPRD], the protein stability index runs as follows: (treatment: DMSO) 3.38 ± 0.22; (treatment: MLN4924 1 uM, 8 h) 3.39 ± 0.22.
As for RKEAYGKPVDIWACGVILYILLVG [CAMK2B], the protein stability index reads like this: (treatment: DMSO) 2.95 ± 0.76; (treatment: MLN4924 1 uM, 8 h) 2.73 ± 0.7.
On the same counts, the results for IFEPPVRNSGIIGGKYLGRTKVVK [EFHC1] are 3.42 ± 0.3 and 3.62 ± 0.28.
On the same counts, the results for FRQRCLERMRNSRDRLLNRYRQAG [RPAIN] are 3.15 ± 0.12 and 3.2 ± 0.15.
The like results for LAAALAQHSVPLQLELRAGAERLD [TRADD] were, in that order, 2.97 ± 0.36 and 2.94 ± 0.12.
As for APDSGRSAPYSAAFLELPHGSGGS [TBX6], the protein stability index worked out at 4.3 ± 0.17 (treatment: DMSO) and 4.46 ± 0.066 (treatment: MLN4924 1 uM, 8 h).
Consider VGCKGSKAGIEQEGYWLPGDEISI [ZMYND11], for which the protein stability index turned out to be 3.18 ± 0.32 (treatment: DMSO) and 3.13 ± 0.31 (treatment: MLN4924 1 uM, 8 h).
On the same counts, the results for TEKSGKREFDVRQTPQVNINPFTP [WEE1] are 4.42 ± 0.25 and 4.25 ± 0.094.
On the same counts, the results for PGLGQESKAPGSCDPGTDPCPEDA [TLE6] are 5.65 ± 0.27 and 5.55 ± 0.22.
On the same counts, the results for TIEGTSDDLTVVDAASLRRQIIKL [MFF] are 4 ± 0.34 and 4.08 ± 0.16.
For PDLLPTDYRKQLQYPNPLPVLSGA [VPS39], the protein stability index runs as follows: (treatment: DMSO) 3.34 ± 0.4; (treatment: MLN4924 1 uM, 8 h) 3.43 ± 0.14.
As to DEMCANNDFVQVDPGQVGLINSNV [FAN1], the protein stability index was determined as 4.82 ± 0.2 (treatment: DMSO) and 4.78 ± 0.35 (treatment: MLN4924 1 uM, 8 h).
The like results for KTRQKSEKQMEEKRRANQKSSAQG [PPEF2] were, in that order, 5.25 ± 0.27 and 5.3 ± 0.2.
On the same counts, the results for DYRKQLQYPNPLPVLSGAELEKAH [VPS39] are 4.5 ± 0.15 and 4.41 ± 0.12.
The like results for SWRVGVVRVRQDSGAEGHSHSCYH [TRIM35] were, in that order, 3.02 ± 0.41 and 3.2 ± 0.32.
With EETGSRFHNCLIQLYCEKVQGLMK [VPS39], the protein stability index was found to be 2.48 ± 0.45 (treatment: DMSO) and 2.45 ± 0.5 (treatment: MLN4924 1 uM, 8 h).
The like results for LGFGPTYVVLAYTLPPASRFIIIF [SOAT1] were, in that order, 3.09 ± 0.14 and 3.03 ± 0.77.
In the case of RTDSREQKLDAFLQPLSKPLSSQP [MLH1], the protein stability index came out at 4.32 ± 0.082 (treatment: DMSO) and 4.44 ± 0.14 (treatment: MLN4924 1 uM, 8 h).
The like results for RLMRDMAQLRLQLEVSQLEGSLQQ [SMG5] were, in that order, 2.39 ± 0.43 and 2.6 ± 0.3.
On the same counts, the results for IEAAVQDRLNEQEGVPSVFNPPPS [FAF2] are 5.06 ± 0.17 and 5.04 ± 0.15.
On the same counts, the results for VSKTLPSTWSDPSVNISLDNLLPG [CLINT1] are 3.35 ± 0.17 and 3.56 ± 0.16.
In the case of MLRWLIGGGREPQGLAEKSPLQTI [WDR41], the protein stability index was 2.33 ± 0.21 (treatment: DMSO) and 2.33 ± 0.23 (treatment: MLN4924 1 uM, 8 h).
On the same counts, the results for KTKVPSNDNSSDLLYDDLYDDDID [UBE2R2] are 5.28 ± 0.43 and 5.38 ± 0.36.
On the same counts, the results for QSLYQEVFGRLRDENGRPYSPSQY [NFE2L1] are 3.59 ± 0.31 and 3.4 ± 0.18.
The like results for NLGDALDSSNSMQTIQKTTTRRIV [KRT18] were, in that order, 4.38 ± 0.19 and 4.51 ± 0.28.
On to CLLICAEMYQVSRLQHICELFIIT [RHOBTB3], for which the protein stability index (treatment: DMSO) came to 3.06 ± 0.38 and the protein stability index (treatment: MLN4924 1 uM, 8 h) was 3 ± 0.27.
